B1: BACE2 D110A: single D110A BACE2 mutant of a critical aspartate residue, made by site-directed mutagenesis (protein)
chain: ALEPALASPAGAANFLAMVDNLQGDSGRGYYLEMLIGTPPQKLQILVATGSSNFAVAGTPHSYIDTYFDTERSSTYRSKGFDVTVKYTQGSWTGFVGEDLVTIPKGFNTSFLVNIATIFESENFFLPGIKWNGILGLAYATLAKPSSSLETFFDSLVTQANIPNVFSMQMCGAGLPVAGSGTNGGSLVLGGIEPSLYKGDIWYTPIKEEWYYQIEILKLEIGGQSLNLDCREYNADKAIVDSGTTLLRLPQKVFDAVVEAVARASLIPEFSDGFWTGSQLACWTNSETPWSYFPKISIYLRDENSSRSFRITILPQLYIQPMMGAGLNYECYRFGISPSTNALVIGATVMEGFYVIFDRAQKRVGFAASPCAEIAGAAVSEISGPFSTEDVASNCVPAQSLSEPILWIVSYALMSVCGAILLVLIVLLLLPFRCQRRPRDPEVVNDESSLVRHRWK
B2: BACE2: human aspartyl protease, close homolog of BACE (SEQ ID NO: 2), expressed from pcDNA3.1(−)/BACE2 in transfected cells (protein)
chain: MGALARALLLPLLAQWLLRAAPELAPAPFTLPLRVAAATNRVVAPTPGPGTPAERHADGLALALEPALASPAGAANFLAMVDNLQGDSGRGYYLEMLIGTPPQKLQILVDTGSSNFAVAGTPHSYIDTYFDTERSSTYRSKGFDVTVKYTQGSWTGFVGEDLVTIPKGFNTSFLVNIATIFESENFFLPGIKWNGILGLAYATLAKPSSSLETFFDSLVTQANIPNVFSMQMCGAGLPVAGSGTNGGSLVLGGIEPSLYKGDIWYTPIKEEWYYQIEILKLEIGGQSLNLDCREYNADKAIVDSGTTLLRLPQKVFDAVVEAVARASLIPEFSDGFWTGSQLACWTNSETPWSYFPKISIYLRDENSSRSFRITILPQLYIQPMMGAGLNYECYRFGISPSTNALVIGATVMEGFYVIFDRAQKRVGFAASPCAEIAGAAVSEISGPFSTEDVASNCVPAQSLSEPILWIVSYALMSVCGAILLVLIVLLLLPFRCQRRPRDPEVVNDESSLVRHRWK

Legend:
[1] = system: APP751sw processing in HEK293T cells; experiment: co-transfection with APP751sw in HEK293T cells, ELISA of conditioned medium; type: cell-based, human
Protocol: (§1) Expression vectors containing BACE and BACE2 cDNAs were transfected into HEK293T cells in the presence of APP751sw or CT100 (Shoji et al., Science 258: 126-129 [1992]; Lichtenthaler et al., Proc. Natl. Acad. Sci. USA 96: 3053-3058 [1999]). Transfections were performed in 24 well plates using Lipofectamine Plus (Gibco/BRL, Bethesda, Md.) and DNA concentrations were kept constant by including non-specific DNA. Expression plasmids were tested for BACE and BACE2 expression by Western blotting. Cell culture supernatants were collected 48 hours and 72 hours post-transfection, and assayed for α-NTF, β-NTF and Aβ formation. β-NTF measurement was performed as described below. α-NTF was captured like β-NTF but was detected with biotinylated 2H3 (Johnson-Wood et al., Proc. Nati. Acad. Sci. USA 94: 1550-1555 [1997]). Aβ levels were determined by an ELISA using monoclonal antibodies 266 for capture and biotinylated 3D6 for detection (see Johnson-Wood et al., [1997] ibid for antibody epitope description). Aβ42, in contrast, was captured using 21F 12 and detected with biotinylated 3D6. Cell extracts prepared 72 hour post-transfection were separated by SDS-PAGE (Novex) and probed with CT695 (Zymed) for APP and CTFs as well as with an Aβ specific monoclonal antibody WO2 (kindly provided by K. Beyreuther; Ida et al., J. Biol. Chem. 271: 22908-22914 [1996]). Alternatively, co-transfection experiments using APP751sw and BACE or BACE2 were performed in the human neuroblastoma cell line, SK-N-MC, available from the American Type Culture Collection (ATCC).
Given the ability of BACE2 to cleave APP at the β-secretase site in vitro, we investigated the role of BACE2 in HEK293T cells relative to BACE. Variable amounts of BACE2 or BACE expression plasmids were co-transfected with constant amount of DNA encoding APP751sw substrate cDNA. Cell supernatants were collected 48 hours or 72 hours post-transfection and analyzed for α-NTF, β-NTF, total Aβ and Aβ42 as described in Genenral Methodology. Expression of APP751 sw alone led to a significant increase in β-NTF, α-NTF, total Aβ and Aβ42 (FIGS. 2a-d) compared to mock-transfected cells. […] This was most likely due to the fact that overexpressed APP751sw was in excess and was already very efficiently cleaved by endogenous BACE (compare mock versus APP751 sw alone). BACE effects on Aβ formation have been reported to be variable (Vassar et al., [1999] ibid; Sinha et al,[1999] ibid; Hussain et al., [1999] ibid; Yan et al, [1999] ibid; Lin et al,[2000] ibid) and thus it appears that additional factors such as γ-secretase might become limiting.
In an independent experiment, we addressed whether BACE2 competed with the ability of BACE to cleave APP at the β-secretase site. HEK293T cells were co-transfected with constant amounts of APP751sw and BACE, and increasing levels of BACE2. β-NTF and Aβ levels were then measured in culture supernatant (FIG. 3). […] BACE and BACE2 appeared to compete for the substrate and thus the effect on β-NTF might rather be steric. In particular, if BACE2 is a less efficient β-secretase in competing with BACE for substrate, it would reduce the overall β-secretase cleavage efficiency (see also FIG. 4). However, this reduction is insufficient to account for the Aβ reduction with BACE2.

[2] = system: CT100 (C-terminal 100 amino acids of APP) processing in HEK293T cells; experiment: co-transfection with CT100 in HEK293T cells, ELISA, Western blot, pulse-chase; type: cell-based, human; conditions: for CTFs derived from CT100 (α-like CTF): HEK293 cells, CT100, Western blot and pulse-chase 90 minutes
Protocol: as §1, with “Alternatively, co-transfection experiments using APP751sw and BACE or BACE2 were performed in the human neuroblastoma cell line, SK-N-MC, available from the American Type Culture Collection (ATCC).” left out
This effect prompted investigation into whether β-secretase cleavage was required for Aβ suppression. The effects of BACE2 on the metabolism of the C-terminal 100 amino acids of APP (CT100), a construct that mimics prior β-secretase cleavage (Shoji et al., Science 258: 126-129 [1992]), was analyzed. […] Cells were readiolabeled with ^35S-methionine/cysteine for 15 minutes after which the medium containing radiolabel was removed and replaced with standard medium. […] Over this 90-minute period, samples were taken and assessed for CTFs by immunoprecipitation. […]

Row | Molecule | Aβ production (total Aβ, Aβ42) with aspartate mutant ([1]; co-transfected with APP751sw or CT100) | β-NTF formation in the presence of co-transfected BACE ([1]; constant APP751sw and BACE) | CTFs derived from CT100 (α-like CTF) [2] | Aβ42 in conditioned medium ([1]; co-transfected with APP751sw) | total Aβ in conditioned medium ([1]; co-transfected with APP751sw) | α-NTF levels in conditioned medium ([1]; co-transfected with APP751sw) | β-NTF levels in conditioned medium ([1]; co-transfected with APP751sw) | total OD of α-NTF plus β-NTF ([1]; co-transfected with APP751sw, APP751sw alone ~2.59) | Aβ levels in the presence of co-transfected BACE ([1]; constant APP751sw and BACE, increasing BACE2) | total Aβ and Aβ42 levels in conditioned medium ([2]; HEK293T, co-transfected with CT100)
1 | B1 | clearly reversed the suppression of Aβ production | compete as well if not slightly more effectively with BACE to form β-NTF | unable to convert APP CT100 to an α-CTF-like fragment |  |  |  |  |  |  | 
2 | B2 |  | reduced the ability of BACE to form β-NTF in a dose-dependent manner | accumulation of the α-like CTF | striking reduction of total Aβ and Aβ42 to levels found in mock-transfected cells | striking reduction of total Aβ and Aβ42 to levels found in mock-transfected cells | slightly higher levels of α-NTF in conditioned medium from BACE2 versus BACE transfected cells | the effect on β-NTF levels was very similar to that of BACE | ~2.5 OD | dramatic dose-dependent reduction in Aβ levels | dramatic suppression of total Aβ as well as Aβ42 levels

— US6713276B2, “Modulation of Aβ levels by β-secretase BACE2” (Scios, Inc., priority 2000, dated 2004)
